Changes are numbered by the printed parent chain.
Key:
[1] = target: PmrA (double-substitution W181G/I220D variant), BeF3^−-activated (Klebsiella pneumoniae); experiment: crystal structure; BeF3^−-activated PmrA dimer mixed 1:1 with 25-bp or 26-bp pbgP promoter DNA in 20 mM Tris-HCl pH 8.0, 100 mM NaCl, 2.65 mM BeF3^−; three copies of the complex (complex-1, -2, -3) in two crystal forms
PmrA N188A = target: T1, PmrA N188A (Klebsiella pneumoniae, UniProt W9BNR5 1-223, N188A); experiment: fluorescence polarization; BeF3-, Mg2+ (activation); FP: 10 mM sodium phosphate, 15 mM NaCl, pH 7.0, 298 K, 6 nM FAM-DNA; proteins activated with 5.3 mM BeCl2, 35 mM NaF, 7 mM MgCl2. NMR: 20 mM Tris-HCl, 100 mM Na
T1 sequence: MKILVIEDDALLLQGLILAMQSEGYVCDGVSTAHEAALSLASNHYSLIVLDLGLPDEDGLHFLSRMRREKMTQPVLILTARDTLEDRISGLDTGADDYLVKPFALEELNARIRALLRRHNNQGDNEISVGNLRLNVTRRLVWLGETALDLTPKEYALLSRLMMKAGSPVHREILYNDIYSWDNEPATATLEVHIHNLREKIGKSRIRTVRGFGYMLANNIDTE

WT-PmrA = target: T2, WT-PmrA (Klebsiella pneumoniae, UniProt W9BNR5 1-223); experiment: as above
T2 sequence: T1 sequence with A188N

PmrA R210A = target: T3, PmrA R210A (Klebsiella pneumoniae, UniProt W9BNR5 1-223, R210A); experiment: as above
T3 sequence: T1 sequence with A188N, R210A

PmrA N196A = target: T4, PmrA N196A (Klebsiella pneumoniae, UniProt W9BNR5 1-223, N196A); experiment: as above
T4 sequence: T1 sequence with A188N, N196A

[2] = target: T5, PmrA (double-substitution variant) (Klebsiella pneumoniae, UniProt W9BNR5 1-223, W181G;I220D); experiment: as above
T5 sequence: T1 sequence with W181G, A188N, I220D

PmrA N176A = target: T6, PmrA N176A (Klebsiella pneumoniae, UniProt W9BNR5 1-223, N176A); experiment: as above
T6 sequence: T1 sequence with N176A, A188N

[3] = target: T5, PmrA (double-substitution variant); experiment: X-ray crystallography (3.8 A); BeF3-, Mg2+; FP: 10 mM sodium phosphate, 15 mM NaCl, pH 7.0, 298 K, 6 nM FAM-DNA; proteins activated with 5.3 mM BeCl2, 35 mM NaF, 7 mM MgCl2. NMR: 20 mM Tris-HCl, 100 mM Na

In the case of “PmrA (double-substitution W181G/I220D variant), BeF3^−-activated (natural protein)”, the stoichiometry N [1] is reported as 2.

B1: 25-bp FAM-labelled DNA (FP) (dsDNA)
DNA 1: ATTTCTTAATATTATCCTAAGCAAG
DNA 2: TTGCTTAGGATAATATTAAGAAATC
For B1, the Kd (PmrA N188A) was 762 ± 12.3 nM, the Kd (WT-PmrA) was 194 ± 7.7 nM and the Kd (PmrA R210A) was 3037 ± 11.7 nM. The Kd (PmrA N196A) was 399 ± 10.9 nM, the Kd [2] was 201 ± 8.2 nM and the Kd (PmrA N176A) was 365 ± 11.6 nM.

B2: 26-bp pmra box DNA (crystal) (dsDNA)
DNA 1: ATTTCTTAATATTATCCTAAGCAAGG
DNA 2: CTTGCTTAGGATAATATTAAGAAATC
B2: binds [3].

Reference: paper PMC4660055
